The values that follow come from PMC10374466.

Series [1] has as its target T1, mouse IDO1 (Mus musculus, UniProt P28776 1-407). As to the kind of experiment: flow cytometry on protein-coated beads.
Series [2] has as its target T1, mouse IDO1. The series is described as follows: flow cytometry on protein-coated beads. The source holds these as a separate data set. Background: In flow cytometry, cells or beads pass a laser one at a time.

The Kd is the concentration at which binding is half-saturated.

T1 sequence (P28776 whole entry): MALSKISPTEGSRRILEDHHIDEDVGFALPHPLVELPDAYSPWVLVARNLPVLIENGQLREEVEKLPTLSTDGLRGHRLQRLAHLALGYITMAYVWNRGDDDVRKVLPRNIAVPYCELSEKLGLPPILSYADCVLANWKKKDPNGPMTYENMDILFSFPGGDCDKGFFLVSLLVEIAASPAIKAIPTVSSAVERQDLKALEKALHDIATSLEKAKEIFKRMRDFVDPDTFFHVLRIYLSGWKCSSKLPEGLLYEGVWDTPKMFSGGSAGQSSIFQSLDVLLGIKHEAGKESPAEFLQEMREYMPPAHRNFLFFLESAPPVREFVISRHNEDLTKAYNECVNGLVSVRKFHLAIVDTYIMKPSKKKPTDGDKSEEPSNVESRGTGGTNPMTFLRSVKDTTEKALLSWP

B1: IDO-APT (#4) (ssDNA)
DNA: CAGCACCGTCAACTGAATGCCAACGGCATATCCGGACAGGCGGGAACCTAGGGCCTTTGTGATGCGATGGAGATGT
On to B1, for which, in the series with mouse IDO1 [1], the Kd came out at 131 ± 9 nM.

B2: #2 (ssDNA)
DNA: CAGCACCGTCAACTGAATCCGTCACTCGCTCGGGGGTCCGACATTTACCCTGTGAAATGTGATGCGATGGAGATGT
As to B2, in the series with mouse IDO1 [2], the binding result is recorded as “binds”.

B3: #3 (ssDNA)
DNA: CAGCACCGTCAACTGAATAGGAAGATACCCGGGGGTACCGTTACCGCTGTGAACGGAGGTGATGCGATGGAGATGT
Consider B3, for which the binding result with mouse IDO1 [2] was “binds”.

B4: #1 (ssDNA)
DNA: CAGCACCGTCAACTGAATATCAGGACGGACCTGGGGAGGTCAGTTAGCCCTCTGAACTGTGATGCGATGGAGATGT
As for B4, the binding result with mouse IDO1 [2] is “binds”.
